Results: patent publication US20200347151A1 (CRAGE MEDICAL, published 2020)

Assays:
human FAPα_His [1] = biological target: T1, human FAPα_His (human, UniProt Q12884 26-760); test: Biacore, scFv; 8E3, human FAPα
T1 construct: Fusion protein expressed in 293F cells and purified on a nickel column; also called huFAP; recombinant huFAPα

mouse FAPα_His = biological target: T2, mouse FAPα_His (mouse, UniProt P97321 26-761); test: Biacore, scFv; 8E3, murine FAP
T2 construct: Fusion protein expressed in 293F cells and purified on a nickel column; also called mFAP
T2 sequence (P97321 other isoform, or with tags, fused parts or gaps limits assumed): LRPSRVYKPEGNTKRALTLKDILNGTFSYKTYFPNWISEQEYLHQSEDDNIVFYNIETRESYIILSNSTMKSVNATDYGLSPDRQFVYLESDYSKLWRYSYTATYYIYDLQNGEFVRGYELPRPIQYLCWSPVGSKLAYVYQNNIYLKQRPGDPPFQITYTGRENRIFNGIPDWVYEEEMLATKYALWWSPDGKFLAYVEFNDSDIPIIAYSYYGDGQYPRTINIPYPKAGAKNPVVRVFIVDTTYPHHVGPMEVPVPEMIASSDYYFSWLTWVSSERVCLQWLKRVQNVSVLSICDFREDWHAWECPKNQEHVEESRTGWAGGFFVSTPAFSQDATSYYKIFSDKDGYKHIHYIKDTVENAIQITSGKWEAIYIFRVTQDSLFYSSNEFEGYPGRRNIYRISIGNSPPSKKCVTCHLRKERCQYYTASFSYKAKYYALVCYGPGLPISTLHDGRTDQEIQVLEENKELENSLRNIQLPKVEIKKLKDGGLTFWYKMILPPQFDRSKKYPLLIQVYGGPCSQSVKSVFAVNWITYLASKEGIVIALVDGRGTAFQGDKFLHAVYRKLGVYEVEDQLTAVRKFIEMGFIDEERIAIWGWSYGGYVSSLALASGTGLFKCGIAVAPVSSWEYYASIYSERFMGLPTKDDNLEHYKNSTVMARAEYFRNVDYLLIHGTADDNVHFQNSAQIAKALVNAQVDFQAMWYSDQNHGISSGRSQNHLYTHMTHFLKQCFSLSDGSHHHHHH

human FAPα_His [2] = biological target: T1, human FAPα_His; test: Biacore, scFv; reference is parent antibody 10A4

T1 sequence (Q12884 other isoform, or with tags, fused parts or gaps limits assumed): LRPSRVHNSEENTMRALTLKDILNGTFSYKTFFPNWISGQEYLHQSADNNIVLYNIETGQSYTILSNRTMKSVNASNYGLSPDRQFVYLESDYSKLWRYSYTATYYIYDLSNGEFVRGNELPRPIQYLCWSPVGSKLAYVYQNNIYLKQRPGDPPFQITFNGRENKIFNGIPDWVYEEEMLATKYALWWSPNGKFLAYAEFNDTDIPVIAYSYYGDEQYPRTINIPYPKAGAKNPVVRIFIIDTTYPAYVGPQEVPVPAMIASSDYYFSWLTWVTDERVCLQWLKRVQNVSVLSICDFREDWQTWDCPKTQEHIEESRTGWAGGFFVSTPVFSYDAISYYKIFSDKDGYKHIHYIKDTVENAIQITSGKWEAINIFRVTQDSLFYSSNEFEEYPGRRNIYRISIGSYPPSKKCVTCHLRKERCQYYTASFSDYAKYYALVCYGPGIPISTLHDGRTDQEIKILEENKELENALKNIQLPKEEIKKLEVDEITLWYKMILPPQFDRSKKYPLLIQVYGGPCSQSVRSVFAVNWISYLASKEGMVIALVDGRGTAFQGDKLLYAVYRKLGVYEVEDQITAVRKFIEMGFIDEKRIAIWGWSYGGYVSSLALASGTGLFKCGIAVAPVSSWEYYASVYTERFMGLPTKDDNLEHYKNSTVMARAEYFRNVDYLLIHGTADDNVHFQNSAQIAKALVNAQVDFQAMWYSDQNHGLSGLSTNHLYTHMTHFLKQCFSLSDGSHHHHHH

B1: antibody 8E3 (scFv), affinity-matured from 10A4 (scFv)
scFv: QVQLVQSGAEVKKPGSSVKVSCKASGGTFSSYAISWVRQAPGQGLEWMGGIIPIFGTANYAQKFQGRVTITADKSTSTAYMELSSLRSEDTAVYYCARDAADRDYWGQGTTVTVSSGGGGSGGGGSGGGGSDIVMTQSPLSLPVTPGEPASISCRSSQSLLHPNGFNHLYWYLQKPGQSPQLLIYVGGNRASGVPDRFSGSGSGTDFTLKISRVEAEDVGVYYCQQRNNKNRTFGQGTKVEIKR
notes: also called hu8E3
- Kd (human FAPα_His [1]): 81.6 nM
- Kd (mouse FAPα_His): 267 nM
- fold affinity against 10A4 (human FAPα_His [2]): 2.4 times
